Test results published in the supplement of paper PMC12042874.
± gives the uncertainty stated by the source.

Columns and labels:
[1] = amyloid nucleation score (Sup35N fusion, yeast selection) (log enrichment); library NNK1; higher = more nucleation; inactive = no reads after selection
Summary of the method: (§1)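 Psi-negative yeast expressed Sup35N fused to peptides of 20 random codons. They were induced 24 hours with 100 μM copper sulfate, grown 7 days at 30°C without adenine and uracil, and their plasmid inserts from input and output were Illumina-sequenced. The nucleation score is the DiMSum log enrichment of output over input reads, centred on the mode score of non-aggregating sequences. Sequences with under 100 input reads were excluded.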

[2] = amyloid nucleation score (Sup35N fusion, yeast selection) (log enrichment); library NNK2; higher = more nucleation; inactive = no reads after selection
Summary of the method: as §1

ASWTHVIFTYPLGKA
amyloid nucleation score [1]: 0.035 ± 1

ATAHCWLRQESGEFGDLWIP
amyloid nucleation score [1]: 0.276 ± 0.19

ATAVYMSVLMVPDLRMKAEG
amyloid nucleation score [1]: 1.5 ± 0.7

ATCNNI
amyloid nucleation score [1]: -0.431 ± 1.4

ATGARLKLCQELRSTLGMLT
amyloid nucleation score [1]: -0.608 ± 0.45

ATHPDSSMYNRTTSSNFMWF
amyloid nucleation score [1]: -0.573 ± 0.75

ATREQDFWWFDER
amyloid nucleation score [1]: -1.48 ± 1.2

ATSLSCKSKFPMTDVAHLHH
amyloid nucleation score [1]: 0.406 ± 0.2

ATTLGCQWDWKWSAFGAWLQ
amyloid nucleation score [1]: -1.08 ± 1.1

ATVKVPNNSIRNDFFSNDRD
amyloid nucleation score [1]: -1.13 ± 1.2

AVASMWPRGLALSRLVSLNA
amyloid nucleation score [1]: 0.05 ± 0.47

AVCQRNLFGIVRICRSKTR
amyloid nucleation score [1]: 4.64 ± 0.055

AVCYHGFRMATAASEVCGAS
amyloid nucleation score [1]: 0.327 ± 0.38

AVGKYLWASVGIAFDRQSIM
amyloid nucleation score [1]: -0.837 ± 2.4

AVKYRGNVMFKIRHIMLKCM
amyloid nucleation score [1]: 0.023 ± 0.42

AVLNQYRELKQAGSFYVSTM
amyloid nucleation score [1]: 0.618 ± 0.52

AVLRRYQFVYDLSYLYEDFL
amyloid nucleation score [1]: -0.836 ± 0.48

AVLSPGWWESLYPRRVVHSC
amyloid nucleation score [1]: -0.354 ± 0.54

AVNYIADFGTVDRCCITFPL
amyloid nucleation score [1]: 0.645 ± 0.4

AVPCSC
amyloid nucleation score [1]: 0.189 ± 0.3

YNYASYLVHIALLFLSYIRR
amyloid nucleation score [2]: 0.236 ± 1.1

YNYLLLSMVPSSILSRSYVQ
amyloid nucleation score [2]: -0.161 ± 1.1

YPCKSDF
amyloid nucleation score [2]: -1.66 ± 0.45

YPQGVGSDLTS
amyloid nucleation score [2]: 0.953 ± 0.19

YPVTYQLCILICTGYADKWR
amyloid nucleation score [2]: -1.26 ± 0.64

YQIAWI
amyloid nucleation score [2]: -0.719 ± 0.46

YQLIGFTKVIRFHSVELIEP
amyloid nucleation score [2]: inactive

YRAGLGALEGSVLHAGKW
amyloid nucleation score [2]: inactive

YRCVDYKGIEYLLYREMLTT
amyloid nucleation score [2]: 3.93 ± 0.046

YRDVQNN
amyloid nucleation score [2]: inactive

YRGINGTTGFQLWAPA
amyloid nucleation score [2]: inactive

YRGLTSLYLFNQV
amyloid nucleation score [2]: -0.08 ± 0.23

YRKHRLLH
amyloid nucleation score [2]: -0.893 ± 0.76

YRNVPRRMYRCVGISWS
amyloid nucleation score [2]: 1.13 ± 0.11

YRPQATGLGSRGRR
amyloid nucleation score [2]: 0.81 ± 0.43

YRYAASVPKCNTGSRDVAQT
amyloid nucleation score [2]: 0.942 ± 0.35

YSCQFFCSVLLCLYVSHITN
amyloid nucleation score [2]: inactive

YSDKHM
amyloid nucleation score [2]: -1.27 ± 0.64

YSGDRDTVLYHCTRVGAESV
amyloid nucleation score [2]: 0.109 ± 0.63

YSGKCMEDVRGQMVGGLELV
amyloid nucleation score [2]: 0.405 ± 0.22

YSHGEVCCWSCVMWVKHFMR
amyloid nucleation score [2]: 1.47 ± 0.33

YSKAAIFMESHFLASGNHKA
amyloid nucleation score [2]: 4.67 ± 0.1

YSKNWYWCTDYARANTLYHG
amyloid nucleation score [2]: -1.14 ± 1.1

YSLLLTIKPTTSWRCVSDGH
amyloid nucleation score [2]: 2.27 ± 0.23

YSLNWVQWEWELVCKWQGSL
amyloid nucleation score [2]: 0.143 ± 0.35

YSNANGRTRVWGPRERKKDQ
amyloid nucleation score [2]: -0.004 ± 0.65

YSSYYHNFFRW
amyloid nucleation score [2]: -0.277 ± 0.28

YSVLFL
amyloid nucleation score [2]: -0.722 ± 0.54

YSWKFFCRWNEQD
amyloid nucleation score [2]: 1.04 ± 0.59

YSYTTVFNIASNTTNELATC
amyloid nucleation score [2]: -0.375 ± 0.2

YTCRYRFTLNQTSSRRFSFW
amyloid nucleation score [2]: 1.35 ± 0.13

YTGFWFIFTKGHTE
amyloid nucleation score [2]: inactive

YTPHYLQCRLFCIPLRLNRS
amyloid nucleation score [2]: -1.09 ± 0.49

YTVLWRCTFTKARVFGCVSL
amyloid nucleation score [2]: 0.414 ± 0.51

YVCVYTDF
amyloid nucleation score [2]: -1.38 ± 0.55

YVDLKVACILYPYFSGTRQH
amyloid nucleation score [2]: 4.96 ± 0.078

YVDWAG
amyloid nucleation score [2]: -1.56 ± 0.62

YVGSFVGSGIVLLNNSAVRH
amyloid nucleation score [2]: 3.4 ± 0.14

YVIQMYLSEATGCYVFTYFF
amyloid nucleation score [2]: 0.368 ± 0.33

YVKVRWCGTSPCNEFLRSSY
amyloid nucleation score [2]: 0.429 ± 0.66

YVLKVVIRRLRRSCVSCTWH
amyloid nucleation score [2]: -0.109 ± 0.25

YVSECVANA
amyloid nucleation score [2]: inactive

YVSWCCGRFISYPVC
amyloid nucleation score [2]: 0.321 ± 0.19

YVTPKDDSDAVWGLTLMEMS
amyloid nucleation score [2]: 0.292 ± 0.39

YVVGDMTFWS
amyloid nucleation score [2]: -0.297 ± 1.1

YVVYMVFGR
amyloid nucleation score [2]: 6.323 ± 0.055

YVYTLGI
amyloid nucleation score [2]: -0.337 ± 1.1

YWEDNWAPNIQDLWQRRRCG
amyloid nucleation score [2]: 0.743 ± 0.81

YWTPISFVY
amyloid nucleation score [2]: -1.09 ± 0.64

YWTPYCIVIH
amyloid nucleation score [2]: -0.965 ± 0.78

YYCFHLKEYCRWRSANPHFK
amyloid nucleation score [2]: -0.073 ± 1

YYEIIWYTFQEKLSGCSSCS
amyloid nucleation score [2]: -2.02 ± 0.75

YYGALWRYAGMSG
amyloid nucleation score [2]: -0.472 ± 0.3

YYGRSSLRNRMDVSDVQYPG
amyloid nucleation score [2]: -0.67 ± 1.1

YYSLY
amyloid nucleation score [2]: -0.904 ± 0.36

YYSMGSTCGILDQDSLNVDQ
amyloid nucleation score [2]: -1.34 ± 0.39

YYSPYN
amyloid nucleation score [2]: inactive

YYSSLTYCMLQWYSLFWWGH
amyloid nucleation score [2]: 0.658 ± 0.51

YYSWFSVYSIIILHNQQFRL
amyloid nucleation score [2]: inactive

YYVERCNGTMVRNFLGATLV
amyloid nucleation score [2]: -0.968 ± 0.5

YYVLWSGVGIVMDSAYDTIC
amyloid nucleation score [2]: -0.017 ± 1

YYVTNSGSWLDACHGLYKTG
amyloid nucleation score [2]: inactive

YYVVLGSSM
amyloid nucleation score [2]: -0.018 ± 0.42

YYYIRCTAVK
amyloid nucleation score [2]: -0.495 ± 0.65

YYYTLLSLHHMFCVTYELSG
amyloid nucleation score [2]: 5.443 ± 0.035
